Results published in US5719041.

Legend:
[1] = molecular target: Bovine chymotrypsin (bovine) (UniProt P00766)
Bovine trypsin (bovine) = Bovine trypsin (bovine) (UniProt P00760)
[2] = molecular target: Human Factor XIIa (human) (UniProt P00748)
Human Factor XIa (human) = Human Factor XIa (human) (UniProt P03951)
Human Factor Xa (human) [3] = molecular target: Human Factor Xa (human) (UniProt P00742)
[4] = molecular target: Human activated protein C (human) (UniProt P04070)
[5] = molecular target: Human leukocyte elastase (human) (UniProt P08246)
[6] = molecular target: Human plasma kallikrein (human) (UniProt P03952)
Human plasmin (human) = Human plasmin (human) (UniProt P00747)
Human thrombin (human) = Human thrombin (human) (UniProt P00734)
[7] = molecular target: Single chain tissue plasminogen activator (human) (UniProt P00750)
[8] = molecular target: Tissue factor·Factor VIIa complex (human Factor VIIa with recombinant human TF1-243) (human) (UniProt P08709)
[9] = molecular target: T1, MeOSuc-Ala-Ala-Pro-Val-MCA
T1 sequence (peptide, N-terminal MeOSuc; C-terminal MCA): AAPV

[10] = molecular target: Human Factor XIIa (human) (UniProt P00748); remark: listed apart in the source
Human Factor Xa (human) [11] = molecular target: Human Factor Xa (human) (UniProt P00742); remark: listed apart in the source
[12] = molecular target: Human plasma kallikrein (human) (UniProt P03952); remark: listed apart in the source

Human leukocyte elastase, sequence (P08246 30-247 limits assumed): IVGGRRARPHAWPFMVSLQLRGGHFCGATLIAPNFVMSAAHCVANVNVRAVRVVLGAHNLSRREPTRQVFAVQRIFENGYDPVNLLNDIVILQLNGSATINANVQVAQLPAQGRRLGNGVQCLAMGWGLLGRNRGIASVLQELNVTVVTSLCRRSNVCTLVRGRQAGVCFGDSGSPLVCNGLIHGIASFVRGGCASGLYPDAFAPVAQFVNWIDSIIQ

Row | Percent Activity of protease with 100 nM inhibitor [1] [%] | Percent Activity of protease with 100 nM inhibitor (Bovine trypsin (bovine)) [%] | Percent Activity of protease with 100 nM inhibitor [2] [%] | Percent Activity of protease with 100 nM inhibitor (Human Factor XIa (human)) [%] | Percent Activity of protease with 100 nM inhibitor (Human Factor Xa (human) [3]) [%] | Percent Activity of protease with 100 nM inhibitor [4] [%] | Percent Activity of protease with 100 nM inhibitor [5] [%] | Percent Activity of protease with 100 nM inhibitor [6] [%] | Percent Activity of protease with 100 nM inhibitor (Human plasmin (human)) [%] | Percent Activity of protease with 100 nM inhibitor (Human thrombin (human)) [%] | Percent Activity of protease with 100 nM inhibitor [7] [%] | Percent Activity of protease with 100 nM inhibitor [8] [%] | Km of the substrate with HLE [9] [µM] | concentration giving 10-fold prolongation of clotting time, APTT assay in normal human plasma [10] [µM] | concentration giving 10-fold prolongation of clotting time, PT assay in normal human plasma (Human Factor Xa (human) [11]) [µM] | concentration giving 10-fold prolongation of clotting time, APTT assay in normal human plasma [12] [µM] | Substance
1 | 1 | 0 | 0 | 12 | 2 | 65 | 85 | 2 | 9 | 16 | 100 | 92 |  |  |  |  | Ecotin M84K mutant (from UniProt P23827)
2 |  |  |  |  |  |  |  |  |  |  |  |  | 150 |  |  |  | Human leukocyte elastase (from UniProt P08246) (enzyme)
3 | 0 | 0 | 1 | 5 | 1 | 50 | 88 | 1 | 10 | 4 | 100 | 87 |  |  |  |  | Ecotin M84R mutant (from UniProt P23827)
4 | 0 | 0 | 0 | 79 | 0 | 99 | 0 | 0 | 100 | 98 | 100 | 99 |  | 0.3 | 2 | 0.3 | Ecotin (recombinant wild type, E. coli periplasmic protein, 142 amino acid residues) (from UniProt P23827)
